The RNAGym collection of RNA variant scans (doi:10.1073/pnas.2313332121)
Variants at the floor of the assay were thinned out.

B1: TPR 5TU (parent)
chain: GGAUCUUCUCGAUCUAACAAAAAAGACAAAUCUGCCACAAAGCUUGAGAGCAUCUUCGGAUGCAGAGGCGGCAGCCUUCGGUGGCGCGAUAGCGCCAACGUUCUCAACUAUGACACGCAAAACGCGUGCUCCGUUGAAUGGAGUUUAUCAUG

Variants of: B1
Test: polymerase ribozyme fitness, log enrichment relative to wild type (log ratio); higher = more active; in vitro selection for triplet polymerase activity
Outline: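 Streptavidin-bead capture of gel-excised extended constructs, followed by RT-PCR, closed a single triplicate in vitro selection round. That round began by annealing PCR-built, transcribed mutant libraries of each subunit of a heterodimeric triplet polymerase ribozyme with a biotinylated primer, the partner subunit and triplets, then incubating them frozen at −7 °C. After Illumina sequencing of inputs and outputs, genotypes needed ≥10 input reads and ≥1 read per output. Fitness is the base-2 logarithm of genotype enrichment over wild-type enrichment, using inverse-variance-weighted replicate averages.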

Variant	polymerase ribozyme fitness (log ratio)
A26G C27U G46U G50U C75A	≤ -4.2
A26U C118G	-2.12
C27A A60U G133A U135C A150U	≤ -4.2
A26U A97U A119G	-2.34
G25C A40U C87U C93A C95U	≤ -4.2
A26C U78A G84A G126C C149G	≤ -4.2
A26G G42C C95U A150U	≤ -4.2
A26U A52G C85U	-1.69
A26U A41C U44A G59A G126U G128A A137G	≤ -4.2
A26U U31C A39U U90C	≤ -4.2
A26G G88C A91C C93A C116U	≤ -4.2
A26C C54G A121G	-2.79
C27A C38U G81A G86U A110U	≤ -4.2
G25U A49G A52U U90G C125G A142U G143C	≤ -4.2
A26G C76A	-3.95
A26U U56A C93U	-3.4
G25U A30G C51A C105U G133C	≤ -4.2
A26C A52C	-3.22
G25U	-1.73
A26C A91G G136C	≤ -4.2
A26C G86A C99U G141C	-3.84
A26G A73U C85A U151G	≤ -4.2
A26U A73U G74U C96A	≤ -4.2
A26U A122G C131A	-3.89

Variant	polymerase ribozyme fitness (log ratio)
A26U G92A	-3.86
A26U G86U	-3.84
A26G A28U G42C G59C C96G C105G C116U	-4.04
A26U A40G A41C A49G C51U A52C U90A G92A C95U A97C C118A A137G U151C	≤ -4.2
A26G C27G A40G C57U C85U C118U	-3.9
C27A A60U A91U A106U	≤ -4.2
G25C C75U A91G C99A G124U U134A	≤ -4.2
A26U A73U A91U C96G A137C	≤ -4.2
A26C A29U G126U A138C	≤ -4.2
A26C G50C G71U A73G	≤ -4.2
A26U A89C C95U U104A A107G	≤ -4.2
A26C A37U C79U A106U G143C U146A U148C	≤ -4.2
A26C C35U G88U C96G C108U G143A	≤ -4.2
G25C A41C A47C G83U A89U A121C C125G A142C C149G A150U G152A	≤ -4.2
G25U C36U G67C C85G C87U A89U	≤ -4.2
A26G G83A G88A G94U C149G	-4.19
A26U C36G U134A G143U U144C	≤ -4.2
C27A A29G U33G C35A A60G C93G A97G A120U G133U U134G	≤ -4.2
A26U C85A	-2.68
A26C A137G U144A	-4.13
A26C U44G A91U U145C	≤ -4.2
A26U C85U C105U	-1.82
G25U G48C A52G C54G C57A A60G C96G U101G	≤ -4.2
G25C C105U U144C	-2.67

Variant	polymerase ribozyme fitness (log ratio)
A26C C87U	-1.69
A26C A52C C54A C114A C129G U134A	≤ -4.2
A26U C54A G65A A98G	-4.2
G25C C54U A73G G84A C85A A89C	≤ -4.2
G25U C38U	-1.98
G25U G84A	-3.07
A26U C87U	-1.74
A26U C87G	≤ -4.2
C27A A49C U90G U145C	≤ -4.2
A26C A37G A60U U90A G100C G141A C149U	≤ -4.2
A26C G59U A89C A113G C132G G141U	≤ -4.2
G25C G86A G94U	-3.91
A26U U151C	≤ -4.2
A26C C32G G34C U44A A107G C131U U139C U145C	≤ -4.2
A26C C85A G94C	-1.83
A26G U44G A47C A49C C72G C76G A91C C103G C105G	≤ -4.2
A26U A49C	≤ -4.2
G25U A52C C87A U90G A142G	≤ -4.2
G25U C63G G88C C108U	-3.94
G25U A52C C63U G88C U127C	≤ -4.2
A26C C105U	-2.13
G25C G94A	-3.16
A26U C35A U104G A150C	≤ -4.2
A26G A60G	-3.55

Variant	polymerase ribozyme fitness (log ratio)
G25C U61A C75G A91G A97U	-4.05
A26C U61A A64U C85A A110C	≤ -4.2
G25U A26G G68C A107G U135C	≤ -4.2
A26U U31C A52U A73G C87A A107G	≤ -4.2
A26C U53A G58A	-2.74
G25U U56A G84U C95A C96U A119C G141U U148C C149A	≤ -4.2
G25C U78G C87U G117U C118U U148A	≤ -4.2
G25C A39U U44C A91G C95U	≤ -4.2
A26G A29C G50A U90G	≤ -4.2
C27A A40G U55A G83C	≤ -4.2
C27A A49C G59C G74C G136U	≤ -4.2
A26G A30C G59A G74A G84U	-3.99
A26U U56A U101G A115G	-3.42
A26G C27G C87U U148A	≤ -4.2
A26U A40C C76A G92C A121C	≤ -4.2
A26U C93U G117U A137C	≤ -4.2
C27A A30C A89G G92A C105U G140U	-3.96
G25C G48A C87U A142G	-4.11
A26U G50C	≤ -4.2
G25C G58A C72A G80A C87A C118G	≤ -4.2
A26U C125A	-1.8
A26U A52U U135A	-2.83
A26U G59C C103G A106C C132U	≤ -4.2
A26U U55G G86C C96U A97C C99A U102G	≤ -4.2

Variant	polymerase ribozyme fitness (log ratio)
A26U C36A G58C A89G G94U A138G	≤ -4.2
G25U G58U A97C	-2.23
A26U U31A G86U A147C	≤ -4.2
C27A A119U G133C A137G G140U U144G	≤ -4.2
A26U C75U U148G	≤ -4.2
G25U U61G A66C C87U A137G	≤ -4.2
G25U A49C G88U A97G	≤ -4.2
A26U A52C C96A	-3.2
A26U A28U G81C U90A	≤ -4.2
G25C A52C U53A C87U G92C A98G U104G C108G U135G	≤ -4.2
A26U G84C U145G	≤ -4.2
G25U C93A A147G	≤ -4.2
A26G G46A G48C C51U G71C C103U A120G C149G	≤ -4.2
A26G C75A G81A G140A U148C	≤ -4.2
A26U U56A A98G	-1.83
G25C C69G C96A C99U C118A	≤ -4.2
A26U U33G G92A C95U U134G	≤ -4.2
A26G U31A G48A A60C C76G A107C A119U	≤ -4.2
G25U G34U A47C A89G	≤ -4.2
A26C C87U A122G A142G	-3.94
C27A C85A	≤ -4.2
A26G U53A C85U A91G G133A U139A	≤ -4.2
A26C A60U A107C A115G	≤ -4.2
A26G G42U G48C G50U G84C C87G	≤ -4.2

Variant	polymerase ribozyme fitness (log ratio)
C27A C87U	-3.91
G25U C103G	-3.2
A26U A30U G48A	≤ -4.2
A26C C57U C85G G92U	≤ -4.2
C27A A28G C43A G58C C95U C105G	≤ -4.2
G25C A52C G84U	≤ -4.2
A26C A41G A47C C69G G83A C93U G124U	≤ -4.2
G25C A26U A30U A39U U56G U77A A138U	≤ -4.2
A26G A41C G94A A115C	-3.45
G25C C27U U45C G71U U82A G83A G92U	≤ -4.2
A26U A49G U101G A120G A147C	≤ -4.2
A26U U31G G42C C93G A137G	≤ -4.2
A26G A66U C85A C95A G124C C131A	≤ -4.2
A26G U55G C87A A115U C118U C149G	≤ -4.2
C27A C32U G46A G86U C105A	≤ -4.2
C27A C93U C116U G126A A147G	≤ -4.2
A26U U82A A106C	-3.93
G25C A28G G80C G83A	-4.19
G25U C76G G92A A119U U145A C149A U151G	≤ -4.2
A26G G59U	-3.78
A26G A37G A40G G58U G65U G74C G88C U101C U151A	≤ -4.2
G25U C43A G58C A60C A91G	≤ -4.2
A26C C36G C116A U148G	≤ -4.2
A26C A52C C85U G117A A142G	-3.88

Variant	polymerase ribozyme fitness (log ratio)
A26G A40G U55A G92A C123G C125U G126A U127C	≤ -4.2
A26G C32G A64G C103A	≤ -4.2
A26G C27U A47G C54A U56G G86A	≤ -4.2
G25U U55G A73G A120C C123U	-3.39
A26G G58A C105G G117C U127G	≤ -4.2
A26C G68C A122C U135C U139G U145G	≤ -4.2
G25U C35U G86C C103U G133U	≤ -4.2
A26G A39G G42C A49G U55A U56A U130A U135G	≤ -4.2
A26U G84A C118A	-3.09
G25U A52G U56A A60G G133C	-4.06
A26U U53A	-1.58
A26C A66C G81C G83C	-4.1
G25U A41G C93G A113U A150U	≤ -4.2
G25C A60U C93A C95G A137G	≤ -4.2
A26U C43G C85G C132U	≤ -4.2
C27A C54G G67U G84C	≤ -4.2
A26C C63U C85A A120U	-3.53
G25U A29U G62U C85G A142C	≤ -4.2
A26G C35G C57A G81C C87G	≤ -4.2
A26C G94A C131U	-1.51
A26C C51U A66G U77A C149G	≤ -4.2
A26U G46U G58A A73U C85G U111G	≤ -4.2
A26U U134A	-3.96
